Reference: the supplement of paper PMC10065799, “High-throughput profiling of sequence recognition by tyrosine kinases and SH2 domains using bacterial peptide display” (eLife, 2023)

Assays:
AncSZ = test: phosphorylation enrichment, bacterial display (enrichment ratio); higher = better substrate or ligand; peptides without Tyr show the background
EPHB2 = EPHB2 (UniProt P29323); test: as above
FGFR1 = FGFR1 (UniProt P11362); test: as above
c-Src = test: as above
FGFR3 = FGFR3 (UniProt P22607); test: as above
c-Abl (mouse) = test: as above
MERTK = MERTK (UniProt Q12866); test: as above
Sequence of MERTK (Q12866 whole entry, looked up): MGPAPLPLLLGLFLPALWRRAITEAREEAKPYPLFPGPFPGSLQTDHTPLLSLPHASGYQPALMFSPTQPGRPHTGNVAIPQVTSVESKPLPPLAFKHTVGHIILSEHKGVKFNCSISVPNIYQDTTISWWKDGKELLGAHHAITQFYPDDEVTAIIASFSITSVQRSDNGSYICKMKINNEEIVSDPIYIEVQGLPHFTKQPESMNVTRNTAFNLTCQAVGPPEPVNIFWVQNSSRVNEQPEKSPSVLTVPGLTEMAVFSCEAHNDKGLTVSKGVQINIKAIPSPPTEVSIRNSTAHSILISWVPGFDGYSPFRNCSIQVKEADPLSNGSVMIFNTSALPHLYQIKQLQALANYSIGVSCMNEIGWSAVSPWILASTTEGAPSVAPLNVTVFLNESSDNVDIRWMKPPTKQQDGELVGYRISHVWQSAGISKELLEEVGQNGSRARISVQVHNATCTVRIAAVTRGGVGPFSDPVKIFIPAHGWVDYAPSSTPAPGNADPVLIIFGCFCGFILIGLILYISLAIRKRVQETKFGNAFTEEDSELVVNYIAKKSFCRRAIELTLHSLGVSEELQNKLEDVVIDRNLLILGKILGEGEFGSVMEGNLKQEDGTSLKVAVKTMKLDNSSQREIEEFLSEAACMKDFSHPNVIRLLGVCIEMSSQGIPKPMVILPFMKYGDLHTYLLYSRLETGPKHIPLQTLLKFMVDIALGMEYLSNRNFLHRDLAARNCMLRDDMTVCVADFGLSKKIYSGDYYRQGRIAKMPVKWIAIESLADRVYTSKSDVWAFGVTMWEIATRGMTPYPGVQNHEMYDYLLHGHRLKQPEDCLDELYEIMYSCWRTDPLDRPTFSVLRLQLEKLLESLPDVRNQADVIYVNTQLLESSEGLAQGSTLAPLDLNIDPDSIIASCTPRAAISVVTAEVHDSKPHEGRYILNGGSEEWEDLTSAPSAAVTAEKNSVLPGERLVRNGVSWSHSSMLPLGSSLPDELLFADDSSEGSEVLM

Fer (mouse) = test: as above
EPHB1 = EPHB1 (UniProt P54762); test: as above
Jak2 = Jak2 (UniProt O60674); test: as above
Sequence of Jak2 (O60674 whole entry, looked up): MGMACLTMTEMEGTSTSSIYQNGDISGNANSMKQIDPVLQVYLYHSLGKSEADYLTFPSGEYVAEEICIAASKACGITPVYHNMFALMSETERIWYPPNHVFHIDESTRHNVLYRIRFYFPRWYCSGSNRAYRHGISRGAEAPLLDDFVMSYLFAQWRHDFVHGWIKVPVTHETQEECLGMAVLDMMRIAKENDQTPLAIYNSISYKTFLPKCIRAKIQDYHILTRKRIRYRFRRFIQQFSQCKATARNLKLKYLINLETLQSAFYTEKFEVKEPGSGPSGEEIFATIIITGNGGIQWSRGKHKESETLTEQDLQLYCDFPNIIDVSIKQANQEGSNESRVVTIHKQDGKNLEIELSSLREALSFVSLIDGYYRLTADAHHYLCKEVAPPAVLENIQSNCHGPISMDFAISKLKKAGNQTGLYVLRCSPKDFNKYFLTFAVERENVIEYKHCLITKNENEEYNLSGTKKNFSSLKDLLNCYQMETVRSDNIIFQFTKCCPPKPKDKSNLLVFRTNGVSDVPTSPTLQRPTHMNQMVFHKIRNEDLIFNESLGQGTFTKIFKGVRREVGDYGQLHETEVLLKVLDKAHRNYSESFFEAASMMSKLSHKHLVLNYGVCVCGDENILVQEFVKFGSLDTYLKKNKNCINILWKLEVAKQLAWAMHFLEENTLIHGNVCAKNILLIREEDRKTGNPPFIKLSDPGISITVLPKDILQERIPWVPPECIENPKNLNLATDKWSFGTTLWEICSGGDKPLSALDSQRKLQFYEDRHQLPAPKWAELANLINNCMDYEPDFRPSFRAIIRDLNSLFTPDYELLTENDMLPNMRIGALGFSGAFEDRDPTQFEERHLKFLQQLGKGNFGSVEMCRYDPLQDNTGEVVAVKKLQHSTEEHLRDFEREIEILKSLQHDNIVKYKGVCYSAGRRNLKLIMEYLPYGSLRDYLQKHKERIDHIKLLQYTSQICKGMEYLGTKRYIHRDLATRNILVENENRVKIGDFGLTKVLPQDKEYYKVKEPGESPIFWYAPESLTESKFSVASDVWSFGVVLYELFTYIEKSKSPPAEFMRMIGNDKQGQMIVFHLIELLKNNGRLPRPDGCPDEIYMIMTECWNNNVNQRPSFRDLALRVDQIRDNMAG

Hck = Hck (UniProt P08631); test: as above
Sequence of Hck (P08631 whole entry, looked up): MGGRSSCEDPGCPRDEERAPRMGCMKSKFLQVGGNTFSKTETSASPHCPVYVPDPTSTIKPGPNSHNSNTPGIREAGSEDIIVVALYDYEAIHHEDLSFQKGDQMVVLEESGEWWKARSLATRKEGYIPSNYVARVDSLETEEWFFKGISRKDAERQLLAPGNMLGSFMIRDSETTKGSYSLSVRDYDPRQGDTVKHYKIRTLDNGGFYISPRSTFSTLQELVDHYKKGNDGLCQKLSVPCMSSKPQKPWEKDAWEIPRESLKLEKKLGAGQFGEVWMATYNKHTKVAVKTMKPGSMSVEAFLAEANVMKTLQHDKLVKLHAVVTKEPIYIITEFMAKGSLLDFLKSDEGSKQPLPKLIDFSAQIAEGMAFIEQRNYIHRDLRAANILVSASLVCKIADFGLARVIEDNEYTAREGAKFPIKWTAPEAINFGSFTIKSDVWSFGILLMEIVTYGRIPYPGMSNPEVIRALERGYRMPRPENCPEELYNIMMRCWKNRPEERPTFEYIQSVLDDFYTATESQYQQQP

Fyn = Fyn (UniProt P06241); test: as above
Sequence of Fyn (P06241 whole entry, looked up): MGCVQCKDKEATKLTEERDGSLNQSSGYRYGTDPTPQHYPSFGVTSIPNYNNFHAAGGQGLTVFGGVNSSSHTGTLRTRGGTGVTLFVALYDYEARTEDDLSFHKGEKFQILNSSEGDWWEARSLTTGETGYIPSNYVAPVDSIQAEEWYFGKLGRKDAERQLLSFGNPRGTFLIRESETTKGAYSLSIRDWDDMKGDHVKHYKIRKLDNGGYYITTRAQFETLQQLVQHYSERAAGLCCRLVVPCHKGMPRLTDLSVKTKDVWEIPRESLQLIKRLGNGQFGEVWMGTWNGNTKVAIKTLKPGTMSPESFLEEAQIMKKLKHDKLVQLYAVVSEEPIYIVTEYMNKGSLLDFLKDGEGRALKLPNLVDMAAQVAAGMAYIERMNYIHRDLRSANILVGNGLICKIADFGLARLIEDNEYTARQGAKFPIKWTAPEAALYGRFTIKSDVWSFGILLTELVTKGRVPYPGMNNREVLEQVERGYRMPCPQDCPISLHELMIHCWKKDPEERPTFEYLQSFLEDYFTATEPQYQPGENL

Fes = Fes (UniProt P07332); test: as above
Sequence of Fes (P07332 whole entry, looked up): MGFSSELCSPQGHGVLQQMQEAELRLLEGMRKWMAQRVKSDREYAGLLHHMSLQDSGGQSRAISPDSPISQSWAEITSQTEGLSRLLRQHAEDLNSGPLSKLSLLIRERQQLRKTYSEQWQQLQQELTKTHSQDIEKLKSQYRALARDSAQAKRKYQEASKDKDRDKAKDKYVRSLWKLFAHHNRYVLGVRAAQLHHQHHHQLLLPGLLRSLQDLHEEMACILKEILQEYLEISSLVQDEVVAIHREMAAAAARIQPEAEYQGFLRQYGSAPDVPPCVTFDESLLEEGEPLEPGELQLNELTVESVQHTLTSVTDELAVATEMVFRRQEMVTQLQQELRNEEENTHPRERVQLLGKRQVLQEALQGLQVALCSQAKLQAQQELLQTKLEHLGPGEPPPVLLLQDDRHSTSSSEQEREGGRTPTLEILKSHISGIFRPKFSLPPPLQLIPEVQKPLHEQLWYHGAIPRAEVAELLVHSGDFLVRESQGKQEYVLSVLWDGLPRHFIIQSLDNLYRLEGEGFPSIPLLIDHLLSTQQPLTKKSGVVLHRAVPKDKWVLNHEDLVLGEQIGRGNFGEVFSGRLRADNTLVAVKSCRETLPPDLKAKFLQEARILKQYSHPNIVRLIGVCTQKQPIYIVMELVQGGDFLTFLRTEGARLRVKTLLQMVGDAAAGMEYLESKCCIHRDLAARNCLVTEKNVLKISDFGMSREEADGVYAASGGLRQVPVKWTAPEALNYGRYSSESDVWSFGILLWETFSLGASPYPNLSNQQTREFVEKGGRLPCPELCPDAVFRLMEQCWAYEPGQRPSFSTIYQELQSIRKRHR

SHP2-C SH2 = test: SH2 binding enrichment of the phosphorylated peptide, bacterial display (enrichment ratio); higher = better substrate or ligand; peptides without Tyr show the background
c-Src SH2 = test: as above
Grb2 SH2 = Grb2 SH2 (UniProt P62993); test: as above
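Wherever SH2 binding enrichment of the phosphorylated peptide, bacterial display is given: peptide library displayed on the E. coli surface as eCPX fusions, selected cells deep-sequenced, score is each peptide's frequency after selection divided by its frequency in the input.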
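Wherever phosphorylation enrichment, bacterial display is given: 11-residue human phosphosite peptides and single-mutation variants displayed on the E. coli surface, counted by deep sequencing, each peptide's frequency after selection divided by its frequency in the unselected input library; frequency after pTyr selection over input frequency; kinase dosed for 20-30% of maximal phosphorylation in three min.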

Sequence of EPHB2 (P29323 whole entry, looked up): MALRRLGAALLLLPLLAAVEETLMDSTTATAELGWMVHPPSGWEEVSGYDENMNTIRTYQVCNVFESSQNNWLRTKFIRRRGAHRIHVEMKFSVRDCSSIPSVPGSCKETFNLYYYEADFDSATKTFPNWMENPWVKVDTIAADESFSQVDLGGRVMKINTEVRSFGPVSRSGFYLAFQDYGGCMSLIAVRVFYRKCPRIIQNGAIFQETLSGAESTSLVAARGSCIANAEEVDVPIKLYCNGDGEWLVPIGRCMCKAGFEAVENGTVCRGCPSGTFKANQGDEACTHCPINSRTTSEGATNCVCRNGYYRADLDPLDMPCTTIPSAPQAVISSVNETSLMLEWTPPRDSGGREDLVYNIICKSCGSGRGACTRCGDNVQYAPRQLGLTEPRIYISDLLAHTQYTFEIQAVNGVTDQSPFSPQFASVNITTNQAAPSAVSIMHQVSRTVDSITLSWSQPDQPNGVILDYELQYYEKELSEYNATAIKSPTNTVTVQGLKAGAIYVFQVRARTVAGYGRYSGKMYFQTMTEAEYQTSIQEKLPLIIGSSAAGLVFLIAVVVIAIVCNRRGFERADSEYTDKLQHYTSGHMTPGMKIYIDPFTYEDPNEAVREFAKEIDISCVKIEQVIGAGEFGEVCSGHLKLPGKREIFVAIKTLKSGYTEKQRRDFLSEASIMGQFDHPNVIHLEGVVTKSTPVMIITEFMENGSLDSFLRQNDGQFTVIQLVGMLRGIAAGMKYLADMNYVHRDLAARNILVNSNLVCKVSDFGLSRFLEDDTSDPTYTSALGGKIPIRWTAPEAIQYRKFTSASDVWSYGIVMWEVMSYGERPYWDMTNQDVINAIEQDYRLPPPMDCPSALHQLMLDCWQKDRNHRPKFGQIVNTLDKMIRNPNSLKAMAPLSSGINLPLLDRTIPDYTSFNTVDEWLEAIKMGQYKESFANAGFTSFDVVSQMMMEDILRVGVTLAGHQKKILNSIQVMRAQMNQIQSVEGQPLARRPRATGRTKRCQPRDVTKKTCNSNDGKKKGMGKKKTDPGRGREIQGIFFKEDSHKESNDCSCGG

| Sequence | phosphorylation enrichment (AncSZ) | phosphorylation enrichment (EPHB2) | phosphorylation enrichment (FGFR1) | phosphorylation enrichment (c-Src) | phosphorylation enrichment (FGFR3) | phosphorylation enrichment (c-Abl (mouse)) | phosphorylation enrichment (MERTK) | phosphorylation enrichment (Fer (mouse)) | phosphorylation enrichment (EPHB1) | phosphorylation enrichment (Jak2) | phosphorylation enrichment (Hck) | phosphorylation enrichment (Fyn) | phosphorylation enrichment (Fes) | SH2 binding enrichment (SHP2-C SH2) | SH2 binding enrichment (c-Src SH2) | SH2 binding enrichment (Grb2 SH2) |
| --- | --- | --- | --- | --- | --- | --- | --- | --- | --- | --- | --- | --- | --- | --- | --- | --- |
| ISNATYKEIGL [FLT1_Y199] | 0.462 | 0.498 | 0.446 | 0.366 | 0.438 | 0.467 | 0.304 | 0.471 | 0.352 | 0.442 | 0.485 | 0.447 | 0.605 | 0.587 | 1.04 | 0.823 |
| RFLERYIYNRQ [HLA-DPB1_Y57_E62Q] | 1.01 | 0.907 | 0.854 | 0.768 | 0.805 | 0.811 | 0.732 | 0.655 | 1.04 | 0.796 | 0.786 | 0.813 | 1.06 | 1.2 | 0.699 | 0.919 |
| GLRFGYGGLGG [KRTAP20-2_Y15_V17G_YF] | 0.655 | 0.467 | 0.509 | 0.419 | 0.53 | 0.455 | 0.456 | 0.368 | 0.455 | 0.581 | 0.376 | 0.394 | 0.739 | 0.612 | 0.593 | 1.05 |
| FRNSLYAPDYS [FAM92A_Y226] | 0.723 | 0.775 | 0.66 | 0.779 | 0.619 | 0.493 | 4.83 | 0.555 | 1.23 | 0.58 | 0.88 | 0.734 | 0.725 | 0.754 | 0.568 | 0.79 |
| KGSEGYLAATY [NF1_Y2503] | 0.654 | 0.365 | 0.377 | 0.484 | 0.494 | 0.471 | 0.355 | 0.457 | 0.372 | 0.627 | 0.46 | 0.46 | 0.723 | 0.614 | 0.473 | 0.719 |
| SKEPYYVHCIK [MYO1D_Y586_R588H] | 0.965 | 0.704 | 0.77 | 0.543 | 0.664 | 0.615 | 0.559 | 0.498 | 0.622 | 0.677 | 0.557 | 0.58 | 0.932 | 1.04 | 0.81 | 1.16 |
| RLSVDYSKKSK [TUBA3E_Y161] | 0.515 | 0.389 | 0.373 | 0.36 | 0.34 | 0.433 | 0.461 | 0.35 | 1.09 | 0.408 | 0.442 | 0.247 | 0.553 | 0.526 | 0.387 | 0.894 |
| FSQQTYYPVSN [ABCD1_Y180_R182P] | 0.805 | 3.55 | 9.03 | 4.37 | 6.85 | 0.697 | 7.46 | 0.983 | 4.58 | 7.07 | 5.05 | 2.76 | 0.647 | 0.818 | 0.877 | 0.938 |
| QLGLQYSQGLV [EIF2B4_Y214_R209Q] | 0.995 | 0.479 | 0.478 | 0.629 | 0.776 | 0.861 | 0.731 | 0.527 | 0.427 | 1.75 | 0.598 | 0.447 | 0.835 | 0.721 | 0.375 | 0.644 |
| ALKKPYSVLYK [RPF2_Y59_G60S] | 0.603 | 0.433 | 0.385 | 0.454 | 0.406 | 0.516 | 0.436 | 0.44 | 0.399 | 0.467 | 0.474 | 0.36 | 0.674 | 1.65 | 1.38 | 1.72 |
| SDGGCYEQLFV [MC4R_Y41] | 1.69 | 0.74 | 0.663 | 1.76 | 0.837 | 0.871 | 0.806 | 9.7 | 0.764 | 0.991 | 2.14 | 1.32 | 1.09 | 0.745 | 0.68 | 0.853 |
| KGIDRYNPENL [EIF3K_Y21] | 0.583 | 0.446 | 0.493 | 0.358 | 0.564 | 0.456 | 0.414 | 0.372 | 0.349 | 0.449 | 0.384 | 0.42 | 0.736 | 0.785 | 0.524 | 0.861 |
| FLTLHYDAKPQ [ANG_Y38_Q36L] | 0.912 | 0.426 | 0.532 | 0.312 | 0.575 | 0.501 | 0.301 | 0.328 | 0.505 | 0.669 | 0.462 | 0.449 | 0.983 | 0.844 | 0.653 | 0.783 |
| PVKDPYVMFPQ [PLEKHG2_Y489] | 0.982 | 0.562 | 2.05 | 2.43 | 1.54 | 0.636 | 0.47 | 0.49 | 0.603 | 0.964 | 0.685 | 1.62 | 1.03 | 0.453 | 2.35 | 0.569 |
| SVSNNYIQTLG [CTNND1_Y174] | 0.606 | 0.426 | 0.476 | 0.445 | 0.585 | 0.637 | 0.621 | 0.451 | 0.491 | 0.508 | 0.417 | 0.432 | 0.658 | 0.803 | 0.638 | 0.846 |
| FPPDGYSRHFE [CTNND1_Y213_YF] | 0.606 | 0.373 | 0.398 | 0.472 | 0.603 | 0.493 | 0.372 | 0.349 | 0.363 | 0.62 | 0.408 | 0.435 | 0.676 | 0.738 | 0.424 | 0.818 |
| QLYGPYLRIHA [BSCL2_Y213_A212P] | 0.87 | 2.03 | 0.344 | 2.52 | 0.73 | 0.612 | 0.538 | 0.596 | 0.897 | 0.974 | 2.83 | 2.04 | 1.12 | 1.54 | 1.07 | 1.29 |

| Sequence | phosphorylation enrichment (AncSZ) | phosphorylation enrichment (EPHB2) | phosphorylation enrichment (FGFR1) | phosphorylation enrichment (c-Src) | phosphorylation enrichment (FGFR3) | phosphorylation enrichment (c-Abl (mouse)) | phosphorylation enrichment (MERTK) | phosphorylation enrichment (Fer (mouse)) | phosphorylation enrichment (EPHB1) | phosphorylation enrichment (Jak2) | phosphorylation enrichment (Hck) | phosphorylation enrichment (Fyn) | phosphorylation enrichment (Fes) | SH2 binding enrichment (SHP2-C SH2) | SH2 binding enrichment (c-Src SH2) | SH2 binding enrichment (Grb2 SH2) |
| --- | --- | --- | --- | --- | --- | --- | --- | --- | --- | --- | --- | --- | --- | --- | --- | --- |
| LICRRYLVMQR [IL3RA_Y328_V323L] | 2.5 | 1.72 | 0.926 | 1.01 | 0.834 | 1.22 | 1.01 | 0.956 | 0.827 | 2.35 | 0.729 | 0.564 | 2.01 | 0.675 | 0.414 | 0.695 |
| NYNPNYCFAGK [ALK_Y1096_D1091N] | 1.26 | 1.27 | 0.563 | 0.564 | 0.642 | 0.803 | 1.1 | 0.597 | 3.98 | 0.856 | 0.433 | 0.57 | 0.879 | 0.878 | 0.55 | 0.868 |
| PSDPSYEDMRE [BMPR1A_Y467] | 2.49 | 0.495 | 0.758 | 0.534 | 1.27 | 0.831 | 0.504 | 1.26 | 0.901 | 1.45 | 1.28 | 0.848 | 1.59 | 0.324 | 1.12 | 0.832 |
| SGRPGYCLGTR [SCO1_Y60] | 0.735 | 0.51 | 0.406 | 0.41 | 0.563 | 0.618 | 0.462 | 0.407 | 0.488 | 0.58 | 0.426 | 0.474 | 0.874 | 0.891 | 0.77 | 1.12 |
| HVIKLYGACSQ [RET_Y791] | 1.13 | 0.768 | 0.627 | 0.713 | 0.84 | 1.1 | 0.423 | 0.545 | 0.875 | 1.6 | 0.661 | 0.489 | 1.58 | 0.763 | 0.537 | 0.643 |
| QKPLGYFRVNL [GALE_Y104_D103G_YF] | 1.2 | 0.635 | 0.839 | 0.409 | 0.722 | 0.67 | 0.577 | 0.399 | 0.518 | 1.16 | 0.648 | 0.657 | 1.12 | 1.36 | 1.09 | 1.56 |
| RLLVVYPWTKR [HBB_Y36_Q40K] | 0.735 | 0.678 | 0.694 | 0.583 | 0.613 | 0.602 | 0.612 | 0.45 | 0.418 | 0.475 | 0.547 | 0.485 | 0.829 | 0.812 | 0.447 | 0.951 |
| GRVFVYRLSEQ [ITGAE_Y551_YF] | 0.81 | 0.511 | 0.553 | 0.585 | 0.663 | 0.655 | 0.404 | 0.425 | 0.494 | 0.927 | 0.492 | 0.534 | 1.02 | 1.87 | 0.857 | 1.38 |
| FSPFDYQPCLA [TNS1_Y798_YF] | 1.39 | 0.715 | 1.01 | 0.57 | 0.978 | 1.04 | 0.538 | 0.643 | 0.775 | 1.21 | 0.66 | 0.589 | 1.44 | 0.657 | 0.496 | 0.756 |
| MDNQEYKDAFT [BRDT_Y331_K336T_YF] | 1.14 | 0.913 | 0.539 | 0.458 | 0.802 | 0.737 | 0.402 | 0.539 | 0.56 | 1.15 | 0.488 | 0.486 | 1.3 | 0.69 | 0.617 | 0.685 |
| RVLHNYLVWCV [ECEL1_Y400_R404C] | 1.25 | 0.752 | 0.773 | 0.561 | 1.02 | 0.933 | 0.631 | 0.647 | 1.02 | 1.42 | 0.611 | 0.535 | 1.5 | 0.901 | 0.643 | 0.921 |
| TDVSLYPSGGT [TENM4_Y399] | 0.676 | 0.512 | 0.355 | 0.269 | 0.428 | 0.585 | 0.435 | 0.535 | 0.331 | 0.578 | 0.409 | 0.353 | 0.552 | 0.8 | 0.405 | 0.577 |
| SNSATYSGSVA [PDLIM5_Y382] | 0.748 | 0.497 | 0.432 | 0.498 | 0.483 | 0.576 | 0.516 | 0.392 | 0.347 | 0.48 | 0.56 | 0.561 | 0.624 | 0.572 | 0.39 | 0.691 |
| CPYNLYAEQLS [HGD_Y40] | 1.74 | 2.18 | 0.741 | 6.33 | 0.988 | 0.936 | 2.67 | 1.36 | 2.68 | 1.39 | 2.39 | 3.15 | 1.34 | 0.737 | 0.705 | 0.905 |
| YRVAGYETQGG [TIA1_Y383] | 0.436 | 0.338 | 0.399 | 0.295 | 0.352 | 0.906 | 0.324 | 0.351 | 0.329 | 0.392 | 0.37 | 0.378 | 0.646 | 0.58 | 0.391 | 0.608 |
| EQLGEYKFQNA [ALB_Y425] | 0.824 | 0.415 | 0.471 | 0.367 | 0.5 | 0.774 | 0.324 | 0.351 | 0.461 | 0.715 | 0.415 | 0.394 | 0.77 | 0.416 | 0.518 | 0.793 |
